Measurements published in the supplement of paper PMC10266784.

B1: library; numbered along this chain (parent)
chain: MAAAAAAAAEQQSSNGPVKKSMREKAVERRSVNKEHNSNFKAGYIPIDEDRLHKTGLRGRKGNLAICVIILLFILAVINLIITLVIWAVIRIGPNGCDSMEFHESGLLRFKQVSDMGVIHPLYKSTVGGRRNENLVITGNNQPIVFQQGTTKLSVENNKTSITSDIGMQFFDPRTQNILFSTDYETHEFHLPSGVKSLNVQKASTERITSNATSDLNIKVDGRAIVRGNEGVFIMGKTIEFHMGGNMELKAENSIILNGSVMVSTTRLPSSSSGDQLGSGDWVRYKLCMCADGTLFKVQVTSQNMGCQISDNPCGNTH

Variants of: B1
Assay: SGCB cell-surface expression functional score (HA stain, bin4 vs bin1, normalised to synonymous) (log10 ratio); higher = more cell-surface SGCB (functional)
Description: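 Deep mutational scan of full-length human SGCB (YFP-SGCB-HA, NNN codon sublibraries A-F) delivered by lentivirus at low MOI into ADG-HEK293 cells stably expressing SGCA, SGCD and SGCG. YFP-positive cells were stained for surface HA on unpermeabilized cells and FACS-sorted into bins. The functional score is log10(frequency in high bin 4 / frequency in low bin 1), normalised per chunk so that synonymous variants have mean 0 and SD 0.5. Scores are the median over codons and over duplicate biological replicates; scores below -0.5 are called non-functional. Scale: negative means deleterious.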

Point of comparison: MAAAAAAAAEQQSSNGPVKKSMREKAVERRSVNKEHNSNFKAGYIPIDEDRLHKGGLRGRKGNLAICVIILLFILAVINLIITLVIWAVIRIGPNGCDSMEFHESGLLRFKQVSDMGVIHPLYKSTVGGRRNENLVITGNNQPIVFQQGTTKLSVENNKTSITSDIGMQFFDPRTQNILFSTDYETHEFHLPSGVKSLNVQKASTERITSNATSDLNIKVDGRAIVRGNEGVFIMGKTIEFHMGGNMELKAENSIILNGSVMVSTTRLPSSSSGDQLGSGDWVRYKLCMCADGTLFKVQVTSQNMGCQISDNPCGNTH [T55G], “SGCB cell-surface expression functional score (log10)” value 0.16. Against it:
- MAAAAAAAAEQQSSNGPVKKSMREKAVERRSVNKEHNSNFKAGYIPIDEDRLHKEGLRGRKGNLAICVIILLFILAVINLIITLVIWAVIRIGPNGCDSMEFHESGLLRFKQVSDMGVIHPLYKSTVGGRRNENLVITGNNQPIVFQQGTTKLSVENNKTSITSDIGMQFFDPRTQNILFSTDYETHEFHLPSGVKSLNVQKASTERITSNATSDLNIKVDGRAIVRGNEGVFIMGKTIEFHMGGNMELKAENSIILNGSVMVSTTRLPSSSSGDQLGSGDWVRYKLCMCADGTLFKVQVTSQNMGCQISDNPCGNTH [T55E] — lower, -0.18
- MAAAAAAAAEQQSSNGPVKKSMREKAVERRSVNKEHNSNFKAGYIPIDEDRLHKKGLRGRKGNLAICVIILLFILAVINLIITLVIWAVIRIGPNGCDSMEFHESGLLRFKQVSDMGVIHPLYKSTVGGRRNENLVITGNNQPIVFQQGTTKLSVENNKTSITSDIGMQFFDPRTQNILFSTDYETHEFHLPSGVKSLNVQKASTERITSNATSDLNIKVDGRAIVRGNEGVFIMGKTIEFHMGGNMELKAENSIILNGSVMVSTTRLPSSSSGDQLGSGDWVRYKLCMCADGTLFKVQVTSQNMGCQISDNPCGNTH [T55K] — lower, -0.06
- MAAAAAAAAEQQSSNGPVKKSMREKAVERRSVNKEHNSNFKAGYIPIDEDRLHKLGLRGRKGNLAICVIILLFILAVINLIITLVIWAVIRIGPNGCDSMEFHESGLLRFKQVSDMGVIHPLYKSTVGGRRNENLVITGNNQPIVFQQGTTKLSVENNKTSITSDIGMQFFDPRTQNILFSTDYETHEFHLPSGVKSLNVQKASTERITSNATSDLNIKVDGRAIVRGNEGVFIMGKTIEFHMGGNMELKAENSIILNGSVMVSTTRLPSSSSGDQLGSGDWVRYKLCMCADGTLFKVQVTSQNMGCQISDNPCGNTH [T55L] — within 0.2 log units, 0.08
- MAAAAAAAAEQQSSNGPVKKSMREKAVERRSVNKEHNSNFKAGYIPIDEDRLHKIGLRGRKGNLAICVIILLFILAVINLIITLVIWAVIRIGPNGCDSMEFHESGLLRFKQVSDMGVIHPLYKSTVGGRRNENLVITGNNQPIVFQQGTTKLSVENNKTSITSDIGMQFFDPRTQNILFSTDYETHEFHLPSGVKSLNVQKASTERITSNATSDLNIKVDGRAIVRGNEGVFIMGKTIEFHMGGNMELKAENSIILNGSVMVSTTRLPSSSSGDQLGSGDWVRYKLCMCADGTLFKVQVTSQNMGCQISDNPCGNTH [T55I] — within 0.2 log units, 0.07
- MAAAAAAAAEQQSSNGPVKKSMREKAVERRSVNKEHNSNFKAGYIPIDEDRLHKNGLRGRKGNLAICVIILLFILAVINLIITLVIWAVIRIGPNGCDSMEFHESGLLRFKQVSDMGVIHPLYKSTVGGRRNENLVITGNNQPIVFQQGTTKLSVENNKTSITSDIGMQFFDPRTQNILFSTDYETHEFHLPSGVKSLNVQKASTERITSNATSDLNIKVDGRAIVRGNEGVFIMGKTIEFHMGGNMELKAENSIILNGSVMVSTTRLPSSSSGDQLGSGDWVRYKLCMCADGTLFKVQVTSQNMGCQISDNPCGNTH [T55N] — higher, 0.75
- MAAAAAAAAEQQSSNGPVKKSMREKAVERRSVNKEHNSNFKAGYIPIDEDRLHKRGLRGRKGNLAICVIILLFILAVINLIITLVIWAVIRIGPNGCDSMEFHESGLLRFKQVSDMGVIHPLYKSTVGGRRNENLVITGNNQPIVFQQGTTKLSVENNKTSITSDIGMQFFDPRTQNILFSTDYETHEFHLPSGVKSLNVQKASTERITSNATSDLNIKVDGRAIVRGNEGVFIMGKTIEFHMGGNMELKAENSIILNGSVMVSTTRLPSSSSGDQLGSGDWVRYKLCMCADGTLFKVQVTSQNMGCQISDNPCGNTH [T55R] — within 0.2 log units, 0.21
- MAAAAAAAAEQQSSNGPVKKSMREKAVERRSVNKEHNSNFKAGYIPIDEDRLHKFGLRGRKGNLAICVIILLFILAVINLIITLVIWAVIRIGPNGCDSMEFHESGLLRFKQVSDMGVIHPLYKSTVGGRRNENLVITGNNQPIVFQQGTTKLSVENNKTSITSDIGMQFFDPRTQNILFSTDYETHEFHLPSGVKSLNVQKASTERITSNATSDLNIKVDGRAIVRGNEGVFIMGKTIEFHMGGNMELKAENSIILNGSVMVSTTRLPSSSSGDQLGSGDWVRYKLCMCADGTLFKVQVTSQNMGCQISDNPCGNTH [T55F] — within 0.2 log units, 0.18
- MAAAAAAAAEQQSSNGPVKKSMREKAVERRSVNKEHNSNFKAGYIPIDEDRLHKCGLRGRKGNLAICVIILLFILAVINLIITLVIWAVIRIGPNGCDSMEFHESGLLRFKQVSDMGVIHPLYKSTVGGRRNENLVITGNNQPIVFQQGTTKLSVENNKTSITSDIGMQFFDPRTQNILFSTDYETHEFHLPSGVKSLNVQKASTERITSNATSDLNIKVDGRAIVRGNEGVFIMGKTIEFHMGGNMELKAENSIILNGSVMVSTTRLPSSSSGDQLGSGDWVRYKLCMCADGTLFKVQVTSQNMGCQISDNPCGNTH [T55C] — within 0.2 log units, 0.27
- MAAAAAAAAEQQSSNGPVKKSMREKAVERRSVNKEHNSNFKAGYIPIDEDRLHKAGLRGRKGNLAICVIILLFILAVINLIITLVIWAVIRIGPNGCDSMEFHESGLLRFKQVSDMGVIHPLYKSTVGGRRNENLVITGNNQPIVFQQGTTKLSVENNKTSITSDIGMQFFDPRTQNILFSTDYETHEFHLPSGVKSLNVQKASTERITSNATSDLNIKVDGRAIVRGNEGVFIMGKTIEFHMGGNMELKAENSIILNGSVMVSTTRLPSSSSGDQLGSGDWVRYKLCMCADGTLFKVQVTSQNMGCQISDNPCGNTH [T55A] — lower, -0.43
- MAAAAAAAAEQQSSNGPVKKSMREKAVERRSVNKEHNSNFKAGYIPIDEDRLHKMGLRGRKGNLAICVIILLFILAVINLIITLVIWAVIRIGPNGCDSMEFHESGLLRFKQVSDMGVIHPLYKSTVGGRRNENLVITGNNQPIVFQQGTTKLSVENNKTSITSDIGMQFFDPRTQNILFSTDYETHEFHLPSGVKSLNVQKASTERITSNATSDLNIKVDGRAIVRGNEGVFIMGKTIEFHMGGNMELKAENSIILNGSVMVSTTRLPSSSSGDQLGSGDWVRYKLCMCADGTLFKVQVTSQNMGCQISDNPCGNTH [T55M] — higher, 0.6
- MAAAAAAAAEQQSSNGPVKKSMREKAVERRSVNKEHNSNFKAGYIPIDEDRLHKHGLRGRKGNLAICVIILLFILAVINLIITLVIWAVIRIGPNGCDSMEFHESGLLRFKQVSDMGVIHPLYKSTVGGRRNENLVITGNNQPIVFQQGTTKLSVENNKTSITSDIGMQFFDPRTQNILFSTDYETHEFHLPSGVKSLNVQKASTERITSNATSDLNIKVDGRAIVRGNEGVFIMGKTIEFHMGGNMELKAENSIILNGSVMVSTTRLPSSSSGDQLGSGDWVRYKLCMCADGTLFKVQVTSQNMGCQISDNPCGNTH [T55H] — within 0.2 log units, 0.01
- MAAAAAAAAEQQSSNGPVKKSMREKAVERRSVNKEHNSNFKAGYIPIDEDRLHKDGLRGRKGNLAICVIILLFILAVINLIITLVIWAVIRIGPNGCDSMEFHESGLLRFKQVSDMGVIHPLYKSTVGGRRNENLVITGNNQPIVFQQGTTKLSVENNKTSITSDIGMQFFDPRTQNILFSTDYETHEFHLPSGVKSLNVQKASTERITSNATSDLNIKVDGRAIVRGNEGVFIMGKTIEFHMGGNMELKAENSIILNGSVMVSTTRLPSSSSGDQLGSGDWVRYKLCMCADGTLFKVQVTSQNMGCQISDNPCGNTH [T55D] — higher, 0.39
- MAAAAAAAAEQQSSNGPVKKSMREKAVERRSVNKEHNSNFKAGYIPIDEDRLHKPGLRGRKGNLAICVIILLFILAVINLIITLVIWAVIRIGPNGCDSMEFHESGLLRFKQVSDMGVIHPLYKSTVGGRRNENLVITGNNQPIVFQQGTTKLSVENNKTSITSDIGMQFFDPRTQNILFSTDYETHEFHLPSGVKSLNVQKASTERITSNATSDLNIKVDGRAIVRGNEGVFIMGKTIEFHMGGNMELKAENSIILNGSVMVSTTRLPSSSSGDQLGSGDWVRYKLCMCADGTLFKVQVTSQNMGCQISDNPCGNTH [T55P] — within 0.2 log units, 0.19
- MAAAAAAAAEQQSSNGPVKKSMREKAVERRSVNKEHNSNFKAGYIPIDEDRLHKQGLRGRKGNLAICVIILLFILAVINLIITLVIWAVIRIGPNGCDSMEFHESGLLRFKQVSDMGVIHPLYKSTVGGRRNENLVITGNNQPIVFQQGTTKLSVENNKTSITSDIGMQFFDPRTQNILFSTDYETHEFHLPSGVKSLNVQKASTERITSNATSDLNIKVDGRAIVRGNEGVFIMGKTIEFHMGGNMELKAENSIILNGSVMVSTTRLPSSSSGDQLGSGDWVRYKLCMCADGTLFKVQVTSQNMGCQISDNPCGNTH [T55Q] — lower, -0.62
- MAAAAAAAAEQQSSNGPVKKSMREKAVERRSVNKEHNSNFKAGYIPIDEDRLHYTGLRGRKGNLAICVIILLFILAVINLIITLVIWAVIRIGPNGCDSMEFHESGLLRFKQVSDMGVIHPLYKSTVGGRRNENLVITGNNQPIVFQQGTTKLSVENNKTSITSDIGMQFFDPRTQNILFSTDYETHEFHLPSGVKSLNVQKASTERITSNATSDLNIKVDGRAIVRGNEGVFIMGKTIEFHMGGNMELKAENSIILNGSVMVSTTRLPSSSSGDQLGSGDWVRYKLCMCADGTLFKVQVTSQNMGCQISDNPCGNTH [K54Y] — within 0.2 log units, 0.29
- MAAAAAAAAEQQSSNGPVKKSMREKAVERRSVNKEHNSNFKAGYIPIDEDRLHTTGLRGRKGNLAICVIILLFILAVINLIITLVIWAVIRIGPNGCDSMEFHESGLLRFKQVSDMGVIHPLYKSTVGGRRNENLVITGNNQPIVFQQGTTKLSVENNKTSITSDIGMQFFDPRTQNILFSTDYETHEFHLPSGVKSLNVQKASTERITSNATSDLNIKVDGRAIVRGNEGVFIMGKTIEFHMGGNMELKAENSIILNGSVMVSTTRLPSSSSGDQLGSGDWVRYKLCMCADGTLFKVQVTSQNMGCQISDNPCGNTH [K54T] — within 0.2 log units, 0.27
- MAAAAAAAAEQQSSNGPVKKSMREKAVERRSVNKEHNSNFKAGYIPIDEDRLHVTGLRGRKGNLAICVIILLFILAVINLIITLVIWAVIRIGPNGCDSMEFHESGLLRFKQVSDMGVIHPLYKSTVGGRRNENLVITGNNQPIVFQQGTTKLSVENNKTSITSDIGMQFFDPRTQNILFSTDYETHEFHLPSGVKSLNVQKASTERITSNATSDLNIKVDGRAIVRGNEGVFIMGKTIEFHMGGNMELKAENSIILNGSVMVSTTRLPSSSSGDQLGSGDWVRYKLCMCADGTLFKVQVTSQNMGCQISDNPCGNTH [K54V] — within 0.2 log units, 0.08
- MAAAAAAAAEQQSSNGPVKKSMREKAVERRSVNKEHNSNFKAGYIPIDEDRLHWTGLRGRKGNLAICVIILLFILAVINLIITLVIWAVIRIGPNGCDSMEFHESGLLRFKQVSDMGVIHPLYKSTVGGRRNENLVITGNNQPIVFQQGTTKLSVENNKTSITSDIGMQFFDPRTQNILFSTDYETHEFHLPSGVKSLNVQKASTERITSNATSDLNIKVDGRAIVRGNEGVFIMGKTIEFHMGGNMELKAENSIILNGSVMVSTTRLPSSSSGDQLGSGDWVRYKLCMCADGTLFKVQVTSQNMGCQISDNPCGNTH [K54W] — higher, 0.69
